Measured values: publication PMC12499469

Target: GRB2 (human (cDNA from 293T or brain glioma cells)), P62993
Assay: molecular recruitment colocalization (MRC), live-cell fluorescence imaging; bait fused to scFv and a fluorescent protein, recruited by dCas9-10xGCN4 (SunTag) and sgRNA MUC4-272kb to a repeated genomic locus in SunTag10x-dCas9-HEK293T cells; preys fused to mCherry or mTagBFP2 with NLS; colocalized spots imaged 24 h after transfection, 37 °C
Conditions: remark: other sources report otherwise

Sequence of GRB2 (human (cDNA from 293T or brain glioma cells)), P62993 (P62993 whole entry, the tested form may be a part): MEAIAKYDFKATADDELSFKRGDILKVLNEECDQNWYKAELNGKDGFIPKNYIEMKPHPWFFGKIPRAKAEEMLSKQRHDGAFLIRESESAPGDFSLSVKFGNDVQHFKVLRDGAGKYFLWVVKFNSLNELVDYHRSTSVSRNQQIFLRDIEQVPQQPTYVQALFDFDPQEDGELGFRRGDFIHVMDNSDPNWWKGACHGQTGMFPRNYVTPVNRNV

B1: SOS1, Q07889 1-1333 (natural protein)
chain: MQAQQLPYEFFSEENAPKWRGLLVPALKKVQGQVHPTLESNDDALQYVEELILQLLNMLCQAQPRSASDVEERVQKSFPHPIDKWAIADAQSAIEKRKRRNPLSLPVEKIHPLLKEVLGYKIDHQVSVYIVAVLEYISADILKLVGNYVRNIRHYEITKQDIKVAMCADKVLMDMFHQDVEDINILSLTDEEPSTSGEQTYYDLVKAFMAEIRQYIRELNLIIKVFREPFVSNSKLFSANDVENIFSRIVDIHELSVKLLGHIEDTVEMTDEGSPHPLVGSCFEDLAEELAFDPYESYARDILRPGFHDRFLSQLSKPGAALYLQSIGEGFKEAVQYVLPRLLLAPVYHCLHYFELLKQLEEKSEDQEDKECLKQAITALLNVQSGMEKICSKSLAKRRLSESACRFYSQQMKGKQLAIKKMNEIQKNIDGWEGKDIGQCCNEFIMEGTLTRVGAKHERHIFLFDGLMICCKSNHGQPRLPGASNAEYRLKEKFFMRKVQINDKDDTNEYKHAFEIILKDENSVIFSAKSAEEKNNWMAALISLQYRSTLERMLDVTMLQEEKEEQMRLPSADVYRFAEPDSEENIIFEENMQPKAGIPIIKAGTVIKLIERLTYHMYADPNFVRTFLTTYRSFCKPQELLSLIIERFEIPEPEPTEADRIAIENGDQPLSAELKRFRKEYIQPVQLRVLNVCRHWVEHHFYDFERDAYLLQRMEEFIGTVRGKAMKKWVESITKIIQRKKIARDNGPGHNITFQSSPPTVEWHISRPGHIETFDLLTLHPIEIARQLTLLESDLYRAVQPSELVGSVWTKEDKEINSPNLLKMIRHTTNLTLWFEKCIVETENLEERVAVVSRIIEILQVFQELNNFNGVLEVVSAMNSSPVYRLDHTFEQIPSRQKKILEEAHELSEDHYKKYLAKLRSINPPCVPFFGIYLTNILKTEEGNPEVLKRHGKELINFSKRRKVAEITGEIQQYQNQPYCLRVESDIKRFFENLNPMGNSMEKEFTDYLFNKSLEIEPRNPKPLPRFPKKYSYPLKSPGVRPSNPRPGTMRHPTPLQQEPRKISYSRIPESETESTASAPNSPRTPLTPPPASGASSTTDVCSVFDSDHSSPFHSSNDTVFIQVTLPHGPRSASVSSISLTKGTDEVPVPPPVPPRRRPESAPAESSPSKIMSKHLDSPPAIPPRQPTSKAYSPRYSISDRTSISDPPESPPLLPPREPVRTPDVFSSSPLHLQPPPLGKKSDHGNAFFPNSPSPFTPPPPQTPSPHGTRRHLPSPPLTQEVDLHSIAGPPVPPRQSTSQHIPKLPPKTYKREHTHPSMHRDGPPLLENAHSS
- SNR ratio (GRB2/SOS1 puncta): 1.46
